According to doi:10.1101/2020.01.22.915298 (bioRxiv, 2020):

B1: Heparin-Binding EGF-like Growth Factor, recombinant (receptor, UniProt Q99075 63-148, looked up)
chain: DLQEADLDLLRVTLSSKPQALATPNKEEHGKRKKKGKGLGKKRDPCLRKYKDFCIHGECKYVKELRAPSCICHPGYHGERCHGLSL

Key:
[1] = molecular target: Heparin-Binding EGF-like Growth Factor, recombinant (UniProt Q99075); assay: SPR
[2] = molecular target: diphtheria toxin receptor-binding fragment (lysosomal targeting moiety) (Corynebacterium diphtheriae, UniProt P00588 418-567); assay: SPR
diphtheria toxin receptor-binding fragment (lysosomal targeting moiety), sequence (P00588 418-567): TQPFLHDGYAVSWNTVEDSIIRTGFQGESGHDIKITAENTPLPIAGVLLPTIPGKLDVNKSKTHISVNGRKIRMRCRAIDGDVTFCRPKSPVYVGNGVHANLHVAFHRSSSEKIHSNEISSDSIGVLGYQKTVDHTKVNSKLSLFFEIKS

| Molecule | Kd [1] | Kd [2] |
| --- | --- | --- |
| LTM-TPP1 (TPP1 with an N-terminal LTM fusion) | 19.1 nM |  |
| B1 |  | 13.3 nM |
